Literature values in article PMC8760628.
pKd: −log10 of the molar value.

Biological target: IL-18 mature (Homo sapiens) (UniProt Q14116)
Sequence (Q14116 37-193): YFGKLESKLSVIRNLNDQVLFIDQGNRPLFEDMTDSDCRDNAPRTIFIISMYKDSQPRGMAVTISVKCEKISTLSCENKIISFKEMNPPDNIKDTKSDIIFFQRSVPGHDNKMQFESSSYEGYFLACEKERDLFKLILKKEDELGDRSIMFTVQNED

Sequence of IL-18BP (O95998 31-194): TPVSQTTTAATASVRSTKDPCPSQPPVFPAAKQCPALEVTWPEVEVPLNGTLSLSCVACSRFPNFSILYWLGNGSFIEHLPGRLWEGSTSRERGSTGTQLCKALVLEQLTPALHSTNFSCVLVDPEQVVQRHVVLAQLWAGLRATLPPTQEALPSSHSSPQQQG

For IL-18BP (from UniProt O95998), the pKd is listed as 9.30.
